Common to all, as to test: conjugate formation
The target in test [1] is HLA class I antigens of JY cells (human (endogenous in JY)) (UniProt P04439).
Test [2] shares this target. This is another data set of the same source.
The target is the same in test [3]. This is another data set of the same source.

Read-outs that look alike come from different tables or passages of the source.

Sequence of UniProt P04439 (P04439 whole entry, looked up): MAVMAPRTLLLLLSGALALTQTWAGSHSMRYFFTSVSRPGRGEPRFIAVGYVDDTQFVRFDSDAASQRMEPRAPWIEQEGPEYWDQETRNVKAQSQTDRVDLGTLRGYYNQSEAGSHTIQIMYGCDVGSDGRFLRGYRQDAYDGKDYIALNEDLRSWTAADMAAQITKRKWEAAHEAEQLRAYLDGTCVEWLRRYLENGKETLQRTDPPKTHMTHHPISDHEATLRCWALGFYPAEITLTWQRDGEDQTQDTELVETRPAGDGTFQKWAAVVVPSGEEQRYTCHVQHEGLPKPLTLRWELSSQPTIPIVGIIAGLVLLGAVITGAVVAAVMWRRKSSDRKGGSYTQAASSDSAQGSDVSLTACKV

Regarding “CD8 (human CD8 expressed in the murine T cell hybridoma 16.T8-15) (from UniProt P01732 22-235) (receptor)”, the percent conjugates in test [1] was 29%; in test [2] it was 22%; in test [3], 42%.

The record behind these values is PMC2189183.
